Results on 94 variants are retold here after the supplement of paper PMC10567573.

The labels stand for the following.
B1: TRIM14 (parent)
chain: YARTPTLDPDTMHARLRLSADRLT
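Also: lentivirally expressed fusions sorted by FACS into six bins by GFP to DsRed ratio, PSI derived from sequencing read proportions per bin multiplied by bin number.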

Variants of B1 are the subject of this data set. The experiment in a line: protein stability index of a GFP-peptide fusion (GPS, HEK-293T) (PSI 1-6); higher = more stable. The conditions noted are these: c terminus: a fixed tail appended.
In the case of WARTPTLDPDTMHARLRLSADRLT [Y1W], the protein stability index came to 2.91.

Regarding VARTPTLDPDTMHARLRLSADRLT [Y1V], the protein stability index worked out at 3.68.

In the case of TARTPTLDPDTMHARLRLSADRLT [Y1T], the protein stability index turned out to be 3.69.

With YARSPTLDPDTMHARLRLSADRLT [T4S], the protein stability index came to 2.47.

Take YARNPTLDPDTMHARLRLSADRLT [T4N]: the protein stability index came out at 3.1.

As to YARMPTLDPDTMHARLRLSADRLT [T4M], the protein stability index was determined as 2.45.

Turning to YARCPTLDPDTMHARLRLSADRLT [T4C], the protein stability index is 1.95.

As for YARYPTLDPDTMHARLRLSADRLT [T4Y], the protein stability index was determined as 2.32.

Consider YARLPTLDPDTMHARLRLSADRLT [T4L], for which the protein stability index turned out to be 2.16.

With YARRPTLDPDTMHARLRLSADRLT [T4R], the protein stability index was 3.13.

As for YARQPTLDPDTMHARLRLSADRLT [T4Q], the protein stability index came to 2.84.

As for YARGPTLDPDTMHARLRLSADRLT [T4G], the protein stability index amounted to 2.21.

Consider YAREPTLDPDTMHARLRLSADRLT [T4E], for which the protein stability index turned out to be 4.06.

On to YARKPTLDPDTMHARLRLSADRLT [T4K], for which the protein stability index turned out to be 2.61.

On to YARPPTLDPDTMHARLRLSADRLT [T4P], for which the protein stability index stood at 2.95.

As for YARWPTLDPDTMHARLRLSADRLT [T4W], the protein stability index was 1.17.

As to YARIPTLDPDTMHARLRLSADRLT [T4I], the protein stability index was 3.04.

As to YARDPTLDPDTMHARLRLSADRLT [T4D], the protein stability index was 2.6.

As for YARAPTLDPDTMHARLRLSADRLT [T4A], the protein stability index is 2.37.

Turning to YARHPTLDPDTMHARLRLSADRLT [T4H], the protein stability index came to 2.67.

As for YARVPTLDPDTMHARLRLSADRLT [T4V], the protein stability index came to 2.78.

Consider YARFPTLDPDTMHARLRLSADRLT [T4F], for which the protein stability index was found to be 2.21.

Regarding YARTPTLDRDTMHARLRLSADRLT [P9R], the protein stability index amounted to 2.96.

In the case of YARTPTLDDDTMHARLRLSADRLT [P9D], the protein stability index is 2.98.

In the case of YARTPTLDVDTMHARLRLSADRLT [P9V], the protein stability index came out at 2.41.

For YARTPTLDEDTMHARLRLSADRLT [P9E], the protein stability index stood at 2.56.

On to YARTPTLDLDTMHARLRLSADRLT [P9L], for which the protein stability index turned out to be 2.1.

Consider YARTPTLDADTMHARLRLSADRLT [P9A], for which the protein stability index was determined as 2.82.

For the variant YARTPTLDIDTMHARLRLSADRLT [P9I], the protein stability index was determined as 2.3.

Turning to YARTPTLDYDTMHARLRLSADRLT [P9Y], the protein stability index was determined as 2.22.

For YARTPTLDGDTMHARLRLSADRLT [P9G], the protein stability index was found to be 3.11.

Consider YARTPTLDMDTMHARLRLSADRLT [P9M], for which the protein stability index is 3.07.

Consider YARTPTLDQDTMHARLRLSADRLT [P9Q], for which the protein stability index turned out to be 2.56.

With YARTPTLDWDTMHARLRLSADRLT [P9W], the protein stability index amounted to 2.17.

Turning to YARTPTLDNDTMHARLRLSADRLT [P9N], the protein stability index came out at 3.11.

For YARTPTLDCDTMHARLRLSADRLT [P9C], the protein stability index was 2.1.

Consider YARTPTLDSDTMHARLRLSADRLT [P9S], for which the protein stability index stood at 2.04.

Turning to YARTPTLDHDTMHARLRLSADRLT [P9H], the protein stability index amounted to 2.92.

As for YARTPTLDFDTMHARLRLSADRLT [P9F], the protein stability index was determined as 2.21.

For YARTPTLDKDTMHARLRLSADRLT [P9K], the protein stability index came out at 3.15.

For YARTPTLDTDTMHARLRLSADRLT [P9T], the protein stability index was found to be 2.58.

With YARTPTLDPTTMHARLRLSADRLT [D10T], the protein stability index was determined as 2.66.

Turning to YARTPTLDPSTMHARLRLSADRLT [D10S], the protein stability index stood at 3.77.

Consider YARTPTLDPNTMHARLRLSADRLT [D10N], for which the protein stability index worked out at 3.23.

Take YARTPTLDPVTMHARLRLSADRLT [D10V]: the protein stability index was determined as 2.78.

Consider YARTPTLDPATMHARLRLSADRLT [D10A], for which the protein stability index is 1.98.

In the case of YARTPTLDPQTMHARLRLSADRLT [D10Q], the protein stability index was 2.56.

As to YARTPTLDPGTMHARLRLSADRLT [D10G], the protein stability index is 2.48.

Turning to YARTPTLDPKTMHARLRLSADRLT [D10K], the protein stability index is 3.05.

Take YARTPTLDPLTMHARLRLSADRLT [D10L]: the protein stability index is 2.05.

In the case of YARTPTLDPITMHARLRLSADRLT [D10I], the protein stability index is 2.

Take YARTPTLDPETMHARLRLSADRLT [D10E]: the protein stability index amounted to 2.66.

On to YARTPTLDPMTMHARLRLSADRLT [D10M], for which the protein stability index turned out to be 2.4.

In the case of YARTPTLDPHTMHARLRLSADRLT [D10H], the protein stability index is 2.29.

As for YARTPTLDPFTMHARLRLSADRLT [D10F], the protein stability index came to 1.64.

On to YARTPTLDPCTMHARLRLSADRLT [D10C], for which the protein stability index was determined as 2.22.

As for YARTPTLDPYTMHARLRLSADRLT [D10Y], the protein stability index is 2.34.

For YARTPTLDPPTMHARLRLSADRLT [D10P], the protein stability index was 2.31.

As for YARTPTLDPWTMHARLRLSADRLT [D10W], the protein stability index came out at 3.31.

Regarding YTRTPTLDPDTMHARLRLSADRLT [A2T], the protein stability index came to 2.46.

For YHRTPTLDPDTMHARLRLSADRLT [A2H], the protein stability index came out at 2.46.

Turning to YPRTPTLDPDTMHARLRLSADRLT [A2P], the protein stability index stood at 3.9.

On to YIRTPTLDPDTMHARLRLSADRLT [A2I], for which the protein stability index worked out at 1.73.

As to YVRTPTLDPDTMHARLRLSADRLT [A2V], the protein stability index was 1.89.

In the case of YFRTPTLDPDTMHARLRLSADRLT [A2F], the protein stability index was found to be 2.74.

On to YRRTPTLDPDTMHARLRLSADRLT [A2R], for which the protein stability index came to 2.85.

For YQRTPTLDPDTMHARLRLSADRLT [A2Q], the protein stability index was determined as 2.71.

For YLRTPTLDPDTMHARLRLSADRLT [A2L], the protein stability index was 2.77.

For the variant YSRTPTLDPDTMHARLRLSADRLT [A2S], the protein stability index stood at 2.44.

As for YCRTPTLDPDTMHARLRLSADRLT [A2C], the protein stability index was 2.53.

Take YWRTPTLDPDTMHARLRLSADRLT [A2W]: the protein stability index is 2.5.

With YYRTPTLDPDTMHARLRLSADRLT [A2Y], the protein stability index was found to be 2.9.

In the case of YGRTPTLDPDTMHARLRLSADRLT [A2G], the protein stability index worked out at 3.06.

In the case of YNRTPTLDPDTMHARLRLSADRLT [A2N], the protein stability index is 3.09.

Regarding YMRTPTLDPDTMHARLRLSADRLT [A2M], the protein stability index came to 2.69.

For the variant YERTPTLDPDTMHARLRLSADRLT [A2E], the protein stability index turned out to be 3.71.

Turning to YDRTPTLDPDTMHARLRLSADRLT [A2D], the protein stability index was 3.32.

For YKRTPTLDPDTMHARLRLSADRLT [A2K], the protein stability index amounted to 2.98.

In the case of YARTFTLDPDTMHARLRLSADRLT [P5F], the protein stability index was 2.06.

For YARTLTLDPDTMHARLRLSADRLT [P5L], the protein stability index was 2.34.

Consider YARTVTLDPDTMHARLRLSADRLT [P5V], for which the protein stability index turned out to be 1.96.

Consider YARTHTLDPDTMHARLRLSADRLT [P5H], for which the protein stability index came to 2.84.

On to YARTWTLDPDTMHARLRLSADRLT [P5W], for which the protein stability index was 2.37.

With YARTDTLDPDTMHARLRLSADRLT [P5D], the protein stability index worked out at 3.57.

In the case of YARTCTLDPDTMHARLRLSADRLT [P5C], the protein stability index worked out at 2.18.

As to YARTATLDPDTMHARLRLSADRLT [P5A], the protein stability index was found to be 2.08.

Regarding YARTITLDPDTMHARLRLSADRLT [P5I], the protein stability index amounted to 2.17.

YARTGTLDPDTMHARLRLSADRLT [P5G]: the protein stability index came to 2.88.

In the case of YARTMTLDPDTMHARLRLSADRLT [P5M], the protein stability index was 1.54.

For YARTKTLDPDTMHARLRLSADRLT [P5K], the protein stability index stood at 3.12.

For the variant YARTQTLDPDTMHARLRLSADRLT [P5Q], the protein stability index was 2.56.

Turning to YARTETLDPDTMHARLRLSADRLT [P5E], the protein stability index was 2.62.

In the case of YARTYTLDPDTMHARLRLSADRLT [P5Y], the protein stability index worked out at 2.11.

Consider YARTNTLDPDTMHARLRLSADRLT [P5N], for which the protein stability index was 2.
